Assay [1] concerns the target IL-2Rαβ subunits on U2OS cells. In words: cell-based or functional assay.
In assay [2] the target is IL-2Rβγ subunits on U2OS cells. In words: cell-based or functional assay.
The target in assay [3] is Rhesus IL-2Rβγ on CD8+ T and NK cells in whole blood (rhesus monkey).
The target is the same in assay [4]. This is another data set of the same source.
The target in assay [5] is Human IL-2Rβγ on CD8+ T and NK cells in whole blood (human) (UniProt P14784).
The target is the same in assay [6]. The source holds these as a separate data set.
For assay [7], the target named is Cynomolgus IL-2Rα, polyhistidine-tagged (cynomolgus) (UniProt H6WS54). In words: SPR (Biacore T200), His-tagged receptor. In general terms: SPR reads the build-up and loss of mass on a sensor chip optically.
The target of assay [8] is Cynomolgus/Rhesus IL-2Rβ, polyhistidine-tagged (cynomolgus/rhesus) (UniProt Q38J85). In words: SPR (Biacore T200), His-tagged receptor.
In assay [9] the target is Human IL-2Rα, polyhistidine-tagged (human) (UniProt P01589). In words: SPR (Biacore T200), His-tagged receptor.
Assay [10] deals with Human IL-2Rβ, polyhistidine-tagged (human) (UniProt P14784). Description: SPR (Biacore T200), His-tagged receptor.
The target in assay [11] is Mouse IL-2Rα, polyhistidine-tagged (mouse) (UniProt P01590). Description: SPR (Biacore T200), His-tagged receptor.
Assay [12] deals with Rat IL-2Rα, polyhistidine-tagged (rat) (UniProt P26897). In words: SPR (Biacore T200), His-tagged receptor.
Assay [13] has as its target Rhesus IL-2Rα, polyhistidine-tagged (rhesus) (UniProt Q5MNY4). In words: SPR (Biacore T200), His-tagged receptor.
Assay [14] has as its target Cynomolgus IL-2Rα, polyhistidine-tagged (cynomolgus) (UniProt H6WS54). In words: SPR (Biacore T200), ratio to human IL-2Rα.
Assay [15] has as its target Human IL-2Rα, polyhistidine-tagged (human) (UniProt P01589). Description: SPR (Biacore T200), ratio to human IL-2Rα.
The target in assay [16] is Mouse IL-2Rα, polyhistidine-tagged (mouse) (UniProt P01590). Description: SPR (Biacore T200), ratio to human IL-2Rα.
Assay [17] addresses Rat IL-2Rα, polyhistidine-tagged (rat) (UniProt P26897). Description: SPR (Biacore T200), ratio to human IL-2Rα.
For assay [18], the target named is Rhesus IL-2Rα, polyhistidine-tagged (rhesus) (UniProt Q5MNY4). In words: SPR (Biacore T200), ratio to human IL-2Rα.
Assay [19] addresses Cynomolgus/Rhesus IL-2Rβ, polyhistidine-tagged (cynomolgus/rhesus) (UniProt Q38J85). In words: SPR (Biacore T200), ratio to human IL-2Rβ.
Assay [20] has as its target Human IL-2Rβ, polyhistidine-tagged (human) (UniProt P14784). In words: SPR (Biacore T200), ratio to human IL-2Rβ.

Human IL-2Rβγ on CD8+ T and NK cells in whole blood (human), sequence (P14784 27-551, chain 1 of 2): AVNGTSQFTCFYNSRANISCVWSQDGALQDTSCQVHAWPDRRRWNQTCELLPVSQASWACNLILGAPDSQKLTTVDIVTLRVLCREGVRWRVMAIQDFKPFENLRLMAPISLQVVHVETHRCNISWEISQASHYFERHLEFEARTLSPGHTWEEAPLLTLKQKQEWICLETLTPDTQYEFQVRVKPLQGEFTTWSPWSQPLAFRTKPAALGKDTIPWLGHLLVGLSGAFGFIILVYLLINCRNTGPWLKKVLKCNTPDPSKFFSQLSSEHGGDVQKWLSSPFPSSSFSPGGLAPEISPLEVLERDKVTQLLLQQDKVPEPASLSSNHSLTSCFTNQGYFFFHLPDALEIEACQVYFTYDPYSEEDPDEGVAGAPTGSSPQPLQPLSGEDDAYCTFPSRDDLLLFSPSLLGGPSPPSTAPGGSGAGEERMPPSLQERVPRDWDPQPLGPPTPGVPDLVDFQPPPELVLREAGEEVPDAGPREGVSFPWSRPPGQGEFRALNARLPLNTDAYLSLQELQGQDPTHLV
Human IL-2Rβγ on CD8+ T and NK cells in whole blood (human), sequence (P31785 23-369, chain 2 of 2, further chain): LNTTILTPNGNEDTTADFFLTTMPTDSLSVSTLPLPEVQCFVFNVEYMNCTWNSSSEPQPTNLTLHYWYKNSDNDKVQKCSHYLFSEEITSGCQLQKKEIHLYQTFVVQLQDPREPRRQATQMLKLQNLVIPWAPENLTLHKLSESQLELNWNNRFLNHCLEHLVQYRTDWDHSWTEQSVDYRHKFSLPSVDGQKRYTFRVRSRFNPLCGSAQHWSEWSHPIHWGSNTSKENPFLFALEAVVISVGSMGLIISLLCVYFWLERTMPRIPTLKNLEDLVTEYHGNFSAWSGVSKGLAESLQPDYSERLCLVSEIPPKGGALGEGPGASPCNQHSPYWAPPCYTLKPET
Human IL-2Rα, polyhistidine-tagged (human), sequence (P01589 22-213 limits assumed): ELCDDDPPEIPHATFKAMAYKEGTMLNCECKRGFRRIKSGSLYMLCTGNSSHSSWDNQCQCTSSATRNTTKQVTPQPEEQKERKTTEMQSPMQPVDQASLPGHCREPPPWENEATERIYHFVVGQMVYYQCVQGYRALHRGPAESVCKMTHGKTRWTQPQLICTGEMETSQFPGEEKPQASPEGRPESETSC
Rat IL-2Rα, polyhistidine-tagged (rat), sequence (P26897 22-235 limits assumed): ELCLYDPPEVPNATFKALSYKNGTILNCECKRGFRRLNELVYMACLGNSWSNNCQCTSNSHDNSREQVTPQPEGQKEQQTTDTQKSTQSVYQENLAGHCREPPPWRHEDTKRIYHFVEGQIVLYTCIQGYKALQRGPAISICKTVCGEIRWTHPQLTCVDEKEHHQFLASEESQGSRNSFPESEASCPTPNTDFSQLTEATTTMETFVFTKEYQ
Human IL-2Rβ, polyhistidine-tagged (human), sequence (P14784 27-239 limits assumed): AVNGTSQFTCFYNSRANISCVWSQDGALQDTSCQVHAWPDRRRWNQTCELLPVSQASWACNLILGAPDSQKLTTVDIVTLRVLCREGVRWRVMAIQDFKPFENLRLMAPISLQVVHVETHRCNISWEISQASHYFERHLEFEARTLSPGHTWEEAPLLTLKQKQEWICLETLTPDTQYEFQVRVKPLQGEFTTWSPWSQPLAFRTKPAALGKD
Rhesus IL-2Rα, polyhistidine-tagged (rhesus), sequence (Q5MNY4 22-240 limits assumed): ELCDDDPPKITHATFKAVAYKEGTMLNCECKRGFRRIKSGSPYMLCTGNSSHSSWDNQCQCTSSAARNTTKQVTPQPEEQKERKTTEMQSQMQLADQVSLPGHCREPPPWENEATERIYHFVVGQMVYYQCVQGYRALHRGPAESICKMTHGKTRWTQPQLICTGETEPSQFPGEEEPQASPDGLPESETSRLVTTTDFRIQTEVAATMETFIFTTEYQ
Mouse IL-2Rα, polyhistidine-tagged (mouse), sequence (P01590 22-236 limits assumed): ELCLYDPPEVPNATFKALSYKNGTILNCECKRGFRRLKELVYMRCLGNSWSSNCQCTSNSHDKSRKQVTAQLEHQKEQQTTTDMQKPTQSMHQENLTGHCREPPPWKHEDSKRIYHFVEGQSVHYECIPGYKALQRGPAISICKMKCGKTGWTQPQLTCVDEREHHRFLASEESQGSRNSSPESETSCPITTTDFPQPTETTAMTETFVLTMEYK
Cynomolgus/Rhesus IL-2Rβ, polyhistidine-tagged (cynomolgus/rhesus), sequence (Q38J85 27-240 limits assumed): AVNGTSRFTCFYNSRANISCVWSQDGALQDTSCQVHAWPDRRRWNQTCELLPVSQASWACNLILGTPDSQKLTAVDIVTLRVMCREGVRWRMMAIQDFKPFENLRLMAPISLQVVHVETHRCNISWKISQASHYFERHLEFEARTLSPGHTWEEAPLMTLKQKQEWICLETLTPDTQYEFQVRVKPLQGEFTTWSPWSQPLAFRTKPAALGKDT

R38Q/Y45F-IL-2 Fc, bivalent (Fc fusion) displayed an Ave. EC50 of engaging IL-2Rαβ subunits (receptor engagement study, N = 3) in [1] of 0.007 µM. The substance further had an Ave. EC50 of engaging IL-2Rβγ subunits (receptor engagement study, N = 3) in [2] of 0.0035 µM.

Substance “WT-IL-2 Fc (from UniProt P01857 104-329) (Fc fusion)” had an EC50; pSTAT5 normalized gMFI in CD8 cells, rhesus whole blood (Rh donor 20-1068), flow cytometry in assay [3] of 4.05 nM. The substance further displayed an EC50; pSTAT5 normalized gMFI in NK cells, rhesus whole blood (Rh donor 20-1068), flow cytometry in [4] of 2.44 nM. The substance also came in with an EC50; pSTAT5 normalized gMFI in CD8 cells, human whole blood (Hu donor 2), flow cytometry in assay [5] of 1.41 nM. This substance had an EC50; pSTAT5 normalized gMFI in NK cells, human whole blood (Hu donor 2), flow cytometry in [6] of 0.35 nM. For the same substance, the Kd (commonly the free concentration of one partner at which half of the binding sites on the other are occupied at equilibrium, for simple one-to-one binding) came to 0.03 µM in [7]; 1.3 µM in [8]; 0.028 µM in [9]; 0.94 µM in assay [10]; 0.029 µM in assay [11]; 0.087 µM in assay [12]. For the same substance, the Kd in assay [13] is 0.049 µM. The KD/KD (hu) in assay [14] turned out to be 1.1; in assay [15], 1; in assay [16] it was 1; in assay [17], 3.1; in [18], 1.8; in [19] it was 1.4. Besides, in [20], the KD/KD (hu) was found to be 1.

In turn, “R38Q/Y45F-IL-2 Fc, monovalent (from UniProt P01857 104-329) (Fc fusion)” gave an Ave. EC50 of engaging IL-2Rαβ subunits (receptor engagement study, N = 3) in assay [1] of 0.4 µM. Besides, the Ave. EC50 of engaging IL-2Rβγ subunits (receptor engagement study, N = 3) in assay [2] is 0.002 µM.

The substance Y45R-IL-2 Fc, bivalent (Fc fusion) gave an Ave. EC50 of engaging IL-2Rαβ subunits (receptor engagement study, N = 3) in [1] of 0.03 µM. In assay [2], this substance registered an Ave. EC50 of engaging IL-2Rβγ subunits (receptor engagement study, N = 3) of 0.0023 µM.

For the origin of these results see patent US20240309061A1.
